The test system of data set [1] is SARS-CoV-2. Format: cell-based. As to conditions: 400 μg/ml lactoferrin, 48 h after infection.
Data set [2] has as its system SARS-CoV-2.

This is an account of results in patent US20240115667A1 (priority 2020, published 2024).

Entries after “also recorded” stand apart in the source; their conditions may differ.

B1: lactoferrin: lactoferrin from human milk; iron-binding ~80 kDa glycosylated protein (protein, UniProt P02788 20-710, looked up)
Lactotransferrin: GRRRSVQWCAVSQPEATKCFQWQRNMRKVRGPPVSCIKRDSPIQCIQAIAENRADAVTLDGGFIYEAGLAPYKLRPVAAEVYGTERQPRTHYYAVAVVKKGGSFQLNELQGLKSCHTGLRRTAGWNVPIGTLRPFLNWTGPPEPIEAAVARFFSASCVPGADKGQFPNLCRLCAGTGENKCAFSSQEPYFSYSGAFKCLRDGAGDVAFIRESTVFEDLSDEAERDEYELLCPDNTRKPVDKFKDCHLARVPSHAVVARSVNGKEDAIWNLLRQAQEKFGKDKSPKFQLFGSPSGQKDLLFKDSAIGFSRVPPRIDSGLYLGSGYFTAIQNLRKSEEEVAARRARVVWCAVGEQELRKCNQWSGLSEGSVTCSSASTTEDCIALVLKGEADAMSLDGGYVYTAGKCGLVPVLAENYKSQQSSDPDPNCVDRPVEGYLAVAVVRRSDTSLTWNSVKGKKSCHTAVDRTAGWNIPMGLLFNQTGSCKFDEYFSQSCAPGSDPRSNLCALCIGDEQGENKCVPNSNERYYGYTGAFRCLAENAGDVAFVKDVTVLQNTDGNNNEAWAKDLKLADFALLCLDGKRKPVTEARSCHLAMAPNHAVVSRMDKVERLKQVLLHQQAKFGRNGSDCPDKFCLFQSETKNLLFNDNTECLARLHGKTTYEKYLGPQYVAGITNLKKCSTSPLLEACEFLRK
For B1, the “Decrease of N-protein RNA copies” value in data set [1] worked out at 28.0%.

B2: Unsaturated iron lactoferrin: lactoferrin that has been depleted of iron; also termed reduced iron lactoferrin or apolactoferrin (protein, UniProt P02788 20-710, looked up)
Lactotransferrin: B1 Lactotransferrin
modifications: iron-depleted apolactoferrin
Consider B2, for which the “Inhibition of SARS-CoV-2 infection in vitro” value in data set [2] is listed as “directly inhibited SARS-CoV-2 infection more effectively compared to hololactoferrin; also recorded: inhibited SARS-CoV-2 infection when administered alone”. In addition, the “Reduction of virus-induced cytotoxicity” value in data set [2] (MOI 0.3) is reported as “more effective than recombinant lactoferrin”.
